# Measurements as given in patent US20240026017A1 (Kyowa Kirin, published 2024).
# Changes are numbered by the printed parent chain.
# B1: hzKM5907 LV2bHV2a antibody (antibody, V domains shown)
# VH: EVQLLESGGGLVQPGGSLRLSCAASGFTFSRYGMSWVRQAPGKRLEWVSSISATFTYTYYTDNVKGRFTISRDNSKNTLYLQMNSLRAEDTAVYYCARQDNYAWFDSWGQGTLVTVSS
# VL: DIVMTQTPLSLPVTSGEPVSISCRSSQSIVHSNGNTFLEWYLKKPGQSPQLLIYKVSSRFSGVPDRFSGSGSGTDFTLKISRVEAEDVGVYYCFQGSHIPWTFGGGTKVEIK
# notes: humanized; also called hzmAb5907 LV2bHV2a
# B2: hzKM5907 LV1aHV0 antibody (antibody, V domains shown)
# VH: B1 VH with R44G, R98K
# VL: B1 VL with V19A
# notes: humanized; also called hzmAb5907 LV1aHV0
# B3: hzKM5907 LV4HV0 antibody (antibody, V domains shown)
# VH: B1 VH with R44G, R98K
# VL: B1 VL with S15L, Q50K
# notes: humanized; also called hzmAb5907 LV4HV0
# B4: hzKM5907 LV1cHV7 antibody (antibody, V domains shown)
# VH: B1 VH with L4V, S49A, A92G, V93M, A97T
# VL: B1 VL with K43Q
# notes: humanized; also called hzmAb5907 LV1cHV7
# B5: hzKM5907 LV1bHV7 antibody (antibody, V domains shown)
# VH: B1 VH with L4V, S49A, A92G, V93M, A97T
# VL: B1 VL with V19A, K43Q, Q50K
# notes: humanized; also called hzmAb5907 LV1bHV7
# B6: hzKM5907 LV2bHV2b antibody (antibody, V domains shown)
# VH: B1 VH with R44G, S49A
# VL: B1 VL
# notes: humanized; also called hzmAb5907 LV2bHV2b
# B7: hzKM5907 LV1bHV0 antibody (antibody, V domains shown)
# VH: B1 VH with R44G, R98K
# VL: B1 VL with V19A, K43Q, Q50K
# notes: humanized; also called hzmAb5907 LV1bHV0
# B8: hzKM5907 LV2bHV0 antibody (antibody, V domains shown)
# VH: B1 VH with R44G, R98K
# VL: B1 VL
# notes: humanized; also called hzmAb5907 LV2bHV0
# B9: hzKM5907 LV2bHV4 antibody (antibody, V domains shown)
# VH: B1 VH with R44G, S49A, A92G, A97T
# VL: B1 VL
# notes: humanized; also called hzmAb5907 LV2bHV4
# B10: hzKM5907 LV0HV0 antibody (antibody, V domains shown)
# VH: B1 VH with R44G, R98K
# VL: B1 VL with V19A, K43Q
# notes: humanized; also called hzmAb5907 LV0HV0
# B11: hzKM5907 LV2bHV3c antibody (antibody, V domains shown)
# VH: B1 VH with A92G, A97T, R98K
# VL: B1 VL
# notes: humanized; also called hzmAb5907 LV2bHV3c
# B12: hzKM5907 LV2aHV7 antibody (antibody, V domains shown)
# VH: B1 VH with L4V, S49A, A92G, V93M, A97T
# VL: B1 VL with V19A, Q50K
# notes: humanized; also called hzmAb5907 LV2aHV7
# B13: hzKM5907 LV1cHV0 antibody (antibody, V domains shown)
# VH: B1 VH with R44G, R98K
# VL: B1 VL with K43Q
# notes: humanized; also called hzmAb5907 LV1cHV0
# B14: hzKM5907 LV2bHV1 antibody (antibody, V domains shown)
# VH: B1 VH with R98K
# VL: B1 VL
# notes: humanized; also called hzmAb5907 LV2bHV1
# B15: hzKM5907 LV2aHV0 antibody (antibody, V domains shown)
# VH: B1 VH with R44G, R98K
# VL: B1 VL with V19A, Q50K
# notes: humanized; also called hzmAb5907 LV2aHV0
# B16: hzKM5907 LV1aHV7 antibody (antibody, V domains shown)
# VH: B1 VH with L4V, S49A, A92G, V93M, A97T
# VL: B1 VL with V19A
# notes: humanized; also called hzmAb5907 LV1aHV7
# B17: hzKM5907 LV2bHV7 antibody (antibody, V domains shown)
# VH: B1 VH with L4V, S49A, A92G, V93M, A97T
# VL: B1 VL
# notes: humanized; also called hzmAb5907 LV2bHV7
# B18: hzKM5907 LV2bHV3b antibody (antibody, V domains shown)
# VH: B1 VH with S49A, A97T, R98K
# VL: B1 VL
# notes: humanized; also called hzmAb5907 LV2bHV3b
# B19: hzKM5907 LV4HV7 antibody (antibody, V domains shown)
# VH: B1 VH with L4V, S49A, A92G, V93M, A97T
# VL: B1 VL with S15L, Q50K
# notes: humanized; also called hzmAb5907 LV4HV7
# B20: hzKM5907 LV0HV7 antibody (antibody, V domains shown)
# VH: B1 VH with L4V, S49A, A92G, V93M, A97T
# VL: B1 VL with V19A, K43Q
# notes: humanized; also called hzmAb5907 LV0HV7
# B21: hzmAb5-06 LV2aHV17 antibody (antibody, V domains shown)
# VH: QVQLQQSGPGLVKPSQTLSITCTVSGFSLNNYGVHWVRQPPGKGLEWLGVIWSAGTTVYNAAAISRLTISKDDSKSQVSFKMSSLTAADTAIYYCAKDGSRYYTAMDYWGQGTLVTVSS
# VL: DIVMTQSPLSLPVTLGEPASISCRSSQSLVHRNGITFFHWYLQKPGQSPKLLIYKISNRFSGVPDRFSGSGSGTDFTLKISRVEAEDVGVYYCSQGTHVPPTFGQGTKVEIK
# notes: humanized
# B22: hzmAb5-06 LV4HV17 antibody (antibody, V domains shown)
# VH: B21 VH
# VL: B21 VL with Y92F, V109L
# notes: humanized
# B23: hzmAb5-06 LV1aHV17 antibody (antibody, V domains shown)
# VH: B21 VH
# VL: B21 VL with L15P
# notes: humanized
# B24: hzmAb5-06 LV5HV17 antibody (antibody, V domains shown)
# VH: B21 VH
# VL: B21 VL with I2V, Y92F, V109L
# notes: humanized
# B25: hzmAb5-06 LV0HV17 antibody (antibody, V domains shown)
# VH: B21 VH
# VL: B21 VL with L15P, K50Q
# notes: humanized
# B26: hzmAb5-06 LV1bHV17 antibody (antibody, V domains shown)
# VH: B21 VH
# VL: B21 VL with K50Q
# notes: humanized
# B27: hzmAb5-06 LV2bHV17 antibody (antibody, V domains shown)
# VH: B21 VH
# VL: B21 VL with L15P, Y92F
# notes: humanized
# B28: hzKM5916 LV0HV1 antibody (antibody, V domains shown)
# VH: QVQLQESGGGLVKPGGSLKLSCAASGFTFSRNAMSWVRQTPDKRLEWVAYISSGSDYIYYADTVKGRFTISRDNAKNTLYLQMSSLKSEDTAMYYCTRFSYGYGKNAPDYWGQGTMVTVSS
# VL: DIQMTQSPSSLSASVGDRVTITCKASQDINKYIAWYQQKPGKAPKLLIHYTSSLQPGVPSRFSGSGSGTDFSFTISSLQPEDLATYYCLQYDYTMTFGGGTKVEIK
# notes: humanized; also called hzmAb5916 LV0HV1
# B29: hzKM5916 LV2HV1 antibody (antibody, V domains shown)
# VH: B28 VH
# VL: B28 VL with Q38H, A43G
# notes: humanized; also called hzmAb5916 LV2HV1
# B30: hzKM5916 LV0HV0 antibody (antibody, V domains shown)
# VH: B28 VH with T97A
# VL: B28 VL
# notes: humanized; also called hzmAb5916 LV0HV0
# B31: hzKM5916 LV0HV3 antibody (antibody, V domains shown)
# VH: B28 VH with D42E, K87R
# VL: B28 VL
# notes: humanized; also called hzmAb5916 LV0HV3
# Target: T1, human CC chemokine receptor 1 (human CCR1) (human, UniProt P32246 1-355)
# T1 construct: endogenous on THP-1 cells in the migration assays; also called hCCR1; CHO-S-hCCR1 (expressing cells)
# T1 sequence: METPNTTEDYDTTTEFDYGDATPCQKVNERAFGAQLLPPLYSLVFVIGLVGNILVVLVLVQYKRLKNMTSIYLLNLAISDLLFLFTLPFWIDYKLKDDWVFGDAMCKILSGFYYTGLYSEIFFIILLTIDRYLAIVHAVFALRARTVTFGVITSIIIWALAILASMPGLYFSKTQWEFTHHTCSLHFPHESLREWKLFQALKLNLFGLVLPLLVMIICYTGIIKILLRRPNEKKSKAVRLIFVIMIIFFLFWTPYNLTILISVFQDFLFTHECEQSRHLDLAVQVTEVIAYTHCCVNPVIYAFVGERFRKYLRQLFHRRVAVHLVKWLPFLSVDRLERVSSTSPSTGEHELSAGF
# Assay: flow cytometry on CHO-S-hCCR1 cells; bound = fluorescence 10 times or more that of isotype control hzDNP1
# Protocol: The antigen affinity of the chKM5908′ antibody, which is a VL-substituted chimeric antibody, was measured by flow cytometry using the CHO-S-hCCR1 cells produced in Example 2. The cells were collected by centrifugation, the supernatant was removed, and the cells were suspended in PBS (Staining Medium, hereinafter, abbreviated as SM) containing 2% fetal bovine serum (FBS), 0.05% NaN₃, and 1 mM EDTA. Next, the cells were seeded in a 96-well plate so that the number of cells is 1×10⁵ per well, and the chKM5908′ antibody was added at each final concentration of 10,000, 2,000, 400, 80, 16, and 3.2 ng/mL, and the reaction was performed at 4° C. for 60 minutes. After washing the cells with SM, Goat F (ab′)₂ Anti-Human IgG PE (γ chain specific) (Southern Biotech) diluted 500-fold with SM was added and reacted at 4° C. for 60 minutes. After washing the cells with SM, the cells were resuspended in 50 μL of SM, and the fluorescence intensity was measured by the flow cytometry (FACS Canto II, BD Biosciences).
# Next, a modified antibody was obtained using the method described in Example 12-(3). […] Hereinafter referred to as hzDNP1)] were determined to bind to the human CCR1.
row,Binder,binding result
1,B1,binds
2,B2,binds
3,B3,binds
4,B4,binds
5,B5,binds
6,B6,binds
7,B7,binds
8,B8,binds
9,B9,binds
10,B10,binds
11,B11,binds
12,B12,binds
13,B13,binds
14,B14,binds
15,B15,binds
16,B16,binds

row,Binder,binding result
1,B17,binds
2,B18,binds
3,B19,binds
4,B20,binds
5,B21,binds
6,B22,binds
7,B23,binds
8,B24,binds
9,B25,binds
10,B26,binds
11,B27,binds
12,B28,binds
13,B29,binds
14,B30,binds
15,B31,binds
